Data set [1] can be described thus: Robotic quantitative screen of E. coli lysates: luminescence activity (Li), expression/specific activity. The data set is classed as biochemical. Conditions: relative value. The protocol: A plate containing cells is retrieved from the carousel and placed on the shaker for 3-5 minutes to fully mix the cells. The cells tend to settle from solution upon standing.
To measure Optical Density (O.D.), the plate is moved from the shaker to the locator near the luminometer; the lid is removed and the plate placed into the luminometer. The O.D. is measured using a 620 nm filter.
To prepare a cell lysate, the plate of cells is first retrieved from the refrigerator and mixed on the shaker to resuspend the cells. A new plate from the carousel without a lid is placed in the reagent dispenser and 20 μl of Buffer A is added to each well. This is placed in the pipetting station.
The plate is then moved to the reagent dispenser to add 175 μl of Buffer B, and then mixed on the shaker for about 15 minutes or more. The combination of the freeze/thaw and Buffer B will cause the cells to lyse.
(§1) One daughter plate is placed in the luminometer and the 1X assay method is used. After the assay, the plate is placed in the ambient incubator, and the second daughter plate is placed in the luminometer. For the second plate, the 0.02X assay method is used. This plate is discarded, and the first plate is returned from the incubator to the luminometer. The repeat assay method is used (i.e., no reagent is injected). Afterwards, the plate is again returned to the ambient incubator.
1X Assay reagent: 5 μM Luciferin; 175 μM ATP; 20 mM Tricine, pH 8.0; 0.1 mM EDTA
(§2) The following criteria were used for screening purposes. The temperature chosen for the enzyme stability parameter was such that the parent enzyme would decay 100 to 1000 fold over 10 hours (see Table 1). Criteria 1 is achieved manually; data for criteria 2-6 is generated by robotic analysis. For all criteria, the maximum value as described is selected. • 1. In vivo screen. The brightest clones are selected at a given temperature. • 2. Expression/specific activity. The value for normalized luminescence is calculated as the ratio of luminescence to optical density. The value is reported as the ratio with the reference value. • 3. Enzyme stability. Measurements of normalized luminescence of the incubated samples (3 taken over about 15 hours) are fitted to In(L)=In(L0)−(t/τ), where L is normalized luminescence and t is time. τ is a measure of the enzyme stability. The value is reported as the ratio with the reference value, and the correlation coefficients are calculated. • 4. Substrate binding. Measurements of normalized luminescence with 1X and 0.02X are taken at the initial reading set, and 1X and 0.06X are taken at the 5 hour set. The ratio of the 0.02X:1X and 0.06X:1X gives the relative luminescence at 0.02X and 0.06X concentrations. These values, along with the relative luminescence at 1X (i.e., 1), are fitted to a Lineweaver-Burk plot to yield the Km:app,total for the substrates ATP, luciferin, and CoA. The values are reported as the inverse ratio with the reference value, and the correlation coefficients are calculated. • 5. Signal stability. The luminescence of the initial IX luminescent reactions are re-measured 3 additional times over about 15 hours. These values are fitted to In(L)=In(L0)−(t/τ) and the integral over t (15 hours) is calculated. Signal stability is then calculated as S=(1−int(L)/L0t)^2. The values are reported as the inverse ratio with the reference value, and the correlation coefficients are calculated. • 6. Composite fitness. The values of criteria 2 through 5 are combined into a single composite value of fitness (or commercial utility). This value is based on a judgment of the relative importance of the other criteria. This judgment is given below:
Normalize luminescence data: For each measurement of luminescence in the eight daughter plates, the normalized luminescence is calculated by dividing the relative light units by the optical density of the original plate. […]

Data set [2] in a line: Robotic quantitative screen of E. coli lysates: enzyme stability (tau) at elevated temperature. Conditions: relative value. The data set is classed as physicochemical. The protocol: Two white assay plates (Labsystems #9502887) are obtained from the plate feeder and placed in the pipetter. The incubation plate from the shaker is placed in the pipetter, and the lid removed and placed on the nearby locator. Two daughter plates are made using the pipetting procedure (see “Create Pair of Daughter Plates from Incubation Plate”). Afterwards, the lid is replaced on the parent plate, and the plate is placed in a high temperature incubator. [ranging from 31° C. to about 65° C. depending on the clone.]
To begin the second set of measurements, the plate from the high temperature incubator is placed in the shaker to mix.
In the final set of measurements, the plate from the high temperature incubator is again placed in the shaker to mix.
as §2
Calculate enzyme stability (τ): For each sample, use linear regression to fit In(L1x)=In(L0)−(t/τ) using the three luminescence measurements with 1X substrate concentrations (Plates 1, 5, 8). Also calculate the regression coefficient.
Calculate the reference-normalized values: For the criteria parameter of each sample, a reference-normalized value is determined by calculating the ratio or inverse ratio with the respective reference value. The reference-normalized values are Li/Lir, τ/τr, Kmr/Km:app,total, and Sr/S, where reference values are calculated from the equations of the appropriate reference surface.
“Enzyme stability” was determined by the rate of activity loss from cell lysates over 10 hours. In successive rounds of evolution the incubation temperature of the lysates was increased.
Robotic Automation: Robotic automation was used in the quantitative screens to accurately perform the large number of required quantitative assays on the cultured cells. […]

Data set [3] is described as follows: Robotic quantitative screen of E. coli lysates: signal stability (S), sustained enzymatic turnover. In kind it is biochemical. Conditions: inverse ratio with reference. As to the method:
as §1
The plate in the ambient incubator is returned to the luminometer and the repeat assay method is again used. The plate is returned afterwards to the ambient incubator.
The plate in the ambient incubator is returned to the luminometer and the repeat assay method is again used. The plate is discarded afterwards.
as §2
Calculate signal stability (S): For each sample, use linear regression to fit In(L)=In(L0)[…] using the four luminescence measurements of the initial microplate with 1X substrate concentrations (Plates 1, 3, 4, and 7). Also calculate the regression coefficient. From the calculated values of T and L0, calculate the integral of luminescence by int(L)=τL0(1−exp(−tf/τ)), where tf is the average time of the last measurement (e.g., 15 hours). The signal stability is calculated as S=(1−int(L)/Litf)^2, where Li is the initial measurement of normalized luminescence with 1× substrate concentration (Plate 1).
[Note: To correct for evaporation, an equation S=(1+K−int(L)/Litf)^2, may be used where 1/K=2(relative change of liquid volume at tf).]
Calculate the reference-normalized values: For the criteria parameter of each sample, a reference-normalized value is determined by calculating the ratio or inverse ratio with the respective reference value. […]

Where [4] appears, read: Control is Luc46-2H3 at 54° C. (=1).
Setting [5] is: Control is Luc71-5D4 at 60° C. (=1).
[6] abbreviates: Control is Luc84-3A6 at 64° C. (=1).

Numbering of substitutions follows the chain as printed.

From US8030017B2, “Thermostable luciferases and methods of production” (Promega Corporation, priority 1997, dated 2011) come the findings set out here.

B1: 49-6c10: mutant luciferase, SEQ ID NO:15 (protein)
chain: MEDKNILYGPEPFYPLADGTAGEQMFYALSRYADISGCIALTNAHTKENVLYEELLKLSCRLAESFKKYGLKQNDTIAVCSENGLQFFLPIIASLYLGIIAAPVSDKYIERELIHSLGIVKPRIIFCSKNTFQKVLNVKSKLKYVETIIILDLNEDLGGYQCLNNFISQNSDINLDVKKFKPYSFNRDDQVALVMFSSGTTGVSKGVMLTHKNIVARFSHAKDPTFGNAINPTTAILTVIPFHHGFGMMTTLGYFTCGFRVVLMHTFEEKLFLQSLQDYKVESTLLVPTLMAFFAKSALVEKYDLSHLKEIASGGAPLSKEIGEMVKKRFKLNFVRQGYGLTETTSAVLITPNNDVRPGSTGKIVPFHAVKVVDPTTGKILGPNETGELYFKGDMIMKGYYNNEEATKAIINKDGWLRSGDIAYYDNDGHFYIVDRLKSLIKYKGYQVAPAEIEGILLQHPYIVDAGVTGIPDEAAGELPAAGVVVQTGKYLNEQIVQNFVSSQVSTAKWLRGGVKFLDEIPKGSTGKIDRKVLRQMFEKHTNG
modifications: Mutant luciferase
In the case of B1, in data set [1] (setting [4]), the “Luminescence (Li)” value is recorded as 0.57. Moreover, the “Enzyme stability (tau)” value in data set [2] (setting [4]) worked out at 2.2. Also, the “Signal stability (S)” value in data set [3] (setting [4]) turned out to be 1.

B2: 78-1e1-: mutant luciferase, SEQ ID NO:21 (protein)
chain: MADKNILYGPEPFYPLADGTAGEQMFDALSRYADIPGCIALTNAHTKENVLYEEFLKLSCRLAESFKKYGLKQNDTIAVCSENGLQYFLPVIASLYLGIIAAPVSDKYIERELIHSLGIVKPRIIFCSKNTFQKVLNVKSKLKYVETIIILDLNEDLGGYQCLNNFISQNSDINLDVKKFKPNSFNRDDQVALVMFSSGTTGVPKGVMLTHKNIVARFSIAKDPTFGNAINPTTAILTVIPFHHGFGMMTTLGYFTCGFRVVLMHTFEEKLFLQSLQDYKVESTLLVPTLMAFLAKSALVEKYDLSHLKEIASGGAPLSKEIGEMVKKRFKLNFVRQGYGLTETTSAVLITPKXXARPGSTGKIVPFHAVKVVDPTTGKILGPNEPGELYFKGAMIMKGYYNNEEATKAIIDKDGWLRSGDIAYYDNDGHFYIVDRLKSLIKYKGYQVAPAEIEGILLQHPYIVDAGVTGIPDEAAGELPAAGVVVQTGKYLNEQIVQNFVSSQVSTAKWLRGGVKFLDEIPKGSTGKIDRKVLRQMFEKHTNG
modifications: not fully specified; X: residue not identified in the source
Consider B2, for which the “Luminescence (Li)” value in data set [1] (setting [5]) stood at 0.54. Besides, the “Enzyme stability (tau)” value in data set [2] (setting [5]) was 8.9. The “Signal stability (S)” value in data set [3] (setting [5]) came to 0.9877.

B3: 78-2b4: mutant luciferase, SEQ ID NO:22 (protein)
chain: B2 chain with Y87F, I109V, I173S, I220L, P386T
modifications: not fully specified; X: residue not identified in the source
Take B3: in data set [1] (setting [5]), the “Luminescence (Li)” value is 1.97. Moreover, the “Enzyme stability (tau)” value in data set [2] (setting [5]) stood at 1.36. For the same molecule, the “Signal stability (S)” value in data set [3] (setting [5]) came to 1.0094.

B4: 85(86)-4f12: mutant luciferase, SEQ ID NO:23 (protein)
chain: MADKNILYGPEPFYPLADGTAGEQMFDALSRYADIPGCIALTNAHTKENVLYEEFLKLSCRLAESFKKYGLKQNDTIAVCSENGLQFFLPVIASLYLGIIVAPVNDKYIERELIHSLGIVKPRIIFCSKNTFQKVLNVKSKLKSVETIIILDLNEDLGGYQCLNNFISQNSDINLDVKKFKPYSFNRDDQVALIMFSSGTTGLPKGVMLTHKNIVARFSLAKDPTFGNAINPTTAILTVIPFHHGFGMMTTLGYFTCGFRVVLMHTFEEKLFLQSLQDYKVESTLLVPTLMAFLAKSALVEKYDLSHLKEIASGGAPLSKEIGEMVKKRFKLNFVRQGYGLTETTSAVLITPKXXARPGSTGKIVPFHAVKVVDPTTGKILGPNEPGELYFKGPMIMKGYYNNEEATKAIIDNDGWLRSGDIAYYDNDGHFYIVDRLKSLIKYKGYQVAPAEIEGILLQHPYIVDAGVTGIPDEAAGELPAAGVVVQTGKYLNEQIVQDFVSSQVSTAKWLRGGVKFLDEIPKGSTGKIDRKVLRQMFEKHTNG
modifications: not fully specified; X: residue not identified in the source
As to B4, the “Luminescence (Li)” value in data set [1] (setting [6]) is recorded as 1.1167. Besides, in data set [2] (setting [6]), the “Enzyme stability (tau)” value was determined as 4.7851. In data set [3] (setting [6]), the “Signal stability (S)” value amounted to 1.0092.
